For data set [1], the system named is GST-IL11(A) fusion protein [GST: P08515].
In data set [2] the test system is MBP-IL11 fusion protein [MBP: P0AEX9].
Another data set deals with T1, His-IL11 fusion protein.
T1 sequence: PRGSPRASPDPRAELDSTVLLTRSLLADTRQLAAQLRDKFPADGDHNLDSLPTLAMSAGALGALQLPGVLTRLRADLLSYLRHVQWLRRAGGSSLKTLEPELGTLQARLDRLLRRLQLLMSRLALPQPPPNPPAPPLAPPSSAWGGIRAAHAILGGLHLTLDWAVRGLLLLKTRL

For data set [3], the system named is GST-Thymosin β4 fusion protein [GST: P08515].
Data set [4] has as its system GST-IL11(LV-) fusion protein [GST: P08515].
Data set [5] deals with GST-IL6 fusion protein [GST: P08515].

bovine thrombin: the “thrombin cleavage of the fusion protein, SDS-PAGE time course” value in data set [1] was “The GST fusion partner was efficiently cleaved by both bovine and human thrombin in the concentration ranges and the time points tested”.
The same measure, in the same setting: under human thrombin stands “The GST fusion partner was efficiently cleaved by both bovine and human thrombin in the concentration ranges and the time points tested”.
thrombin (species not stated): the “thrombin cleavage of the fusion protein, SDS-PAGE time course” value was “The fusion protein MBP-IL11 (60 kDa) gradually disappeared, and the amount of IL11 (18 kDa) increased as reaction time passed” in data set [2]; “The fusion protein His-IL11 (22 kDa) gradually disappeared, and the amount of IL11 (18 kDa) increased as reaction time passed” in the data set on His-IL11 fusion protein; “The fusion protein GST-Thymosin β4 (31 kDa) gradually disappeared, and the amount of thymosin β4 (5 kDa) increased as reaction time passed” in data set [3]; “The fusion protein GST-IL11(LV-) (44 kDa) gradually disappeared, and the amount of IL-11(LV-) (18 kDa) increased as reaction time passed” in data set [4]; “The fusion protein GST-IL6 (46 kDa) gradually disappeared, and the amount of IL-6 (22 kDa) increased as reaction time passed” in data set [5]. In addition, in data set [1], the “choice of cleavage site within the linker” value is on record as “thrombin cleavage occurs not at Arg↓Gly but at Arg↓Ala”. For the same substance, the “integrity of released IL-11, MALDI-TOF/MS” value in data set [1] was “it was confirmed that intact IL-11 protein was generated after thrombin cleavage of GST-IL11(A)”. In addition, in data set [3], the “integrity of released thymosin β4, MALDI-TOF/MS” value is on record as “it was confirmed that intact thymosin β4 protein was generated after thrombin cleavage of GST-Thymosin β4”.

The record behind these values is patent US20100285526.
